Where no end group is shown, it is not given here.
T1: biotinylated target peptide NH2-YPYDVPDYAGSGDYKAFD containing the high affinity HA epitope (also: biotinylated, position not given here)
T1 construct: also called the peptide
T1 peptide: YPYDVPDYAGSGDYKAFD

B1: sp55, full-length ecto-domain of human TNFR-1 (residues 30-211) with C-terminal myc and His6 tags, expressed from pSecTag2A (receptor)
chain: DAAQPARRAVRSLVPHLGDREKRDSVCPQGKYIHPQNNSICCTKCHKGTYLYNDCPGPGQDTDCRECESGSFTASENHLRHCLSCSKCRKEMGQVEISSCTVDRDTVCGCRKNQYRHYWSENLFQCFNCSLCLNGTVHLSCQEKQNTVCTCHAGFFLRENECVSCSNCKKSLECTKLCLPQIENVKGTEDSGTTRGGPEQKLISEEDLNSAVDHHHHHH
notes: also called sp55 address domain; p55FL
B2: scFvαHA, single chain antibody derived from monoclonal antibody mAb26/9 (address domain alone, expressed from pSecTag2A with C-terminal myc and His6 tags) (scFv, not shown: small tags and cut ends)
scFv: MEVQLLESGGDLVKPGGSLKLSCAASGFTFSTYGMSWVRQTPDKRLEWVATISNGGGYTYYPDSVKGRFTISRDNAKNTLYLQMSSLKSEDTAMYYCARRERYDENGFAYWGRGTLVTVSAGGGGSGGGGSGGGGSDIVMSQSPSSLAVSVGEKITMSCKSSQSLFNSGKQKNYLTWYQQKPGQSPKLLIYWASTRESGVPDRFTGSGSGTDFTLTISSVKAEDLAVYYCQNDYSHPLTFGGGTKLEIKRADAAPT
notes: also called scHA; scFv anti-HA

What was measured:
[1] = target: T2, S-TNF, human TNFα fusion protein with an N-terminal S-Tag (human, UniProt P01375 77-233); test: indirect ELISA: sp55 from conditioned medium captured on Ni-NTA wells, S-TNF at 1 µg/mL, detection with S-protein-HRP, absorbance at 370 nm
T2 construct: Made by the applicants; not shown: 15 amino acid S-Tag peptide (Novagen)

[2] = target: T1, biotinylated target peptide …; test: sandwich ELISA: component captured on anti-myc (mAb 9E10) plates, biotinylated peptide detected with streptavidin-HRP
From the text: Applicants assessed binding activity of various components using biotinylated peptides in a sandwich ELISA format. […] Bound peptides were quantified using a streptavidin-horseradish peroxidase detection system (Quantablue; Pierce, Rockford, Ill.).

T2 sequence (P01375 77-233): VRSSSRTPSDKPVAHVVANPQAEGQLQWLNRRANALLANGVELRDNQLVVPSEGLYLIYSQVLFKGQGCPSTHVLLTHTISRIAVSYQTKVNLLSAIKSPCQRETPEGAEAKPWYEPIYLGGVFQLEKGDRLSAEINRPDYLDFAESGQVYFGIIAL

Binder	fold elevation of S-TNF binding over non-specific binding in control samples [1]	binding result [2]
B1	3 fold	
B2		binds
